In patent publication US9526786B2, “Thermostabilization of proteins” (The Trustee of Columbia University in the City of New York, priority 2007, dated 2016):

Columns and labels:
CocE [1] = target: T1, CocE (Rhodococcus sp., UniProt Q9L9D7); assay type: biochemical, Rhodococcus sp. MB 1
T1 construct: 6xHis (C); made in house; host or cells: E. coli BL-21 Gold (DE3), pET-22b(+)
T1 sequence (Q9L9D7 1-574): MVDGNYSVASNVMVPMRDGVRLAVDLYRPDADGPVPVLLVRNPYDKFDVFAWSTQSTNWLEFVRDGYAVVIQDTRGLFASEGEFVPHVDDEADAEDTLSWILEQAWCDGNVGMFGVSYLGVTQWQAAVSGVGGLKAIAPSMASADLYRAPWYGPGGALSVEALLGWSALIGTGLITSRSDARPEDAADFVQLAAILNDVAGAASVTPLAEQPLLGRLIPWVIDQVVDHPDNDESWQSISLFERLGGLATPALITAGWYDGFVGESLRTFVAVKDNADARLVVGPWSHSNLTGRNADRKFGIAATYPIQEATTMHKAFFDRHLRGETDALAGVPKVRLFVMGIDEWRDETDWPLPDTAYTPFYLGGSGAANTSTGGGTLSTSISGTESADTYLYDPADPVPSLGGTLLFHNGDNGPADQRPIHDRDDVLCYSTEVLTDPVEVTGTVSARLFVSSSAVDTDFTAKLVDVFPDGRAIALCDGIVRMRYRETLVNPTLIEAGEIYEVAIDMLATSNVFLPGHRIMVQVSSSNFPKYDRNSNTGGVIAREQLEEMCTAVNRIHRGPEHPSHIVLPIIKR
Procedure: (§1) Analysis of CocE action on cocaine cleavage is performed by utilizing the spectroscopic properties of cocaine, which maximally absorbs light at a 240 nm wavelength. CocE activity is measured by monitoring for a decrease in signal at A240, using various concentrations of cocaine, and determining the initial rate of the decrease. From these values the Vmax of the enzyme can be determined. By pre-incubating the enzyme at 37° C. for various times before monitoring for activity, the half life of CocE at 37° C. can be calculated.
(§2) The initial rates (of decay) were determined by following the change in the intrinsic absorbance of cocaine at 240 nm (6700 M^1 cm^1)(Xie et al., 1999) using a SpectraMax Plus 384 UV plate reader (Molecular Devices, Sunnyvale, Calif.) using SOFTmax Pro software (Version 3.1.2). The reaction was initiated by adding 100 μL of a 2× enzyme solution (100 mM phosphate buffer, pH 7.4 and 300 mM NaCl) to 100 μL of a 2× cocaine solution (50 μg/mL enzyme, 100 mM Phosphate Buffer, pH 7.4 and 300 mM NaCl). All assays were performed with 100 μM DTT unless indicated otherwise. Final cocaine concentrations were as follows: 125, 62.5, 31.25, 15.63, 7.81, 3.91, 1.95, and 0.977 μM. Vmax and Km values were calculated using Prism (GraphPad Software, San Diego). For stability measurements, wild type and mutant enzymes were diluted to 2× concentration and incubated at 37° C. for the times indicated. At the end of each time point, an aliquot was removed and kinetic behavior was observed as outlined above.
(§3) In vitro kinetic assays. […] Initial rates were then used to determine Michaelis-Menten parameters. To assess thermal stability, enzyme preparations were preincubated at 37° C. for various lengths of time, prior to measurement of residual activities (Table 1 and FIG. 23).

CocE [2] = target: T1, CocE; assay type: biochemical, Rhodococcus sp. MB 1; conditions: cocaine: 62.5 and 125 μM; benzoic acid: higher concentrations
Procedure: CocE is also able to cleave another substrate, 4-nitrophenyl acetate (FIG. 3). Cleavage is monitored by detection of the appearance of the 4-nitrophenol reaction product, which absorbs at 400 nm.
Further spectrophotometric analysis of cocaine stabilization was performed, by analyzing the ability of CocE to cleave 4-nitrophenyl acetate, after preincubation at 37° C. for various times, in the presence of various concentrations of cocaine. […] However, preincubation of CocE at the higher concentrations for various times at 37° C. indicated the enzyme was stabilized enough to be able to cleave the 4-nitrophenyl substrate (FIG. 5).

CocE [3] = target: T1, CocE; experiment: Screen for stabilization of CocE: 1 hour at 37° C., then 4-nitrophenyl acetate cleavage; assay type: biochemical, Rhodococcus sp. MB 1; conditions: forty compounds tested
Procedure: However all of these small molecules inhibited enzyme activity to certain degrees. It was evaluated whether there might exist a small molecule that could prevent CocE aggregation, without inhibiting enzyme activity. Such a molecule could be used as a stabilizer in vitro, e.g., during enzyme preparation, and in vivo. An assay was designed to screen a library of 20,000 small molecules for stabilization of CocE. In that assay, the enzyme is mixed with the compounds in a 96-well plate format, and then incubated at 37° C. for one hour. […] After 37° C. incubation, the enzyme/compound mixtures are tested for the ability to cleave 4-nitrophenyl acetate (FIG. 8). Only compounds stabilized would be able to cleave after this incubation period.
Forty compounds were first tested. The compounds were assayed in duplicate with appropriate controls. A duplicate plate (without enzyme) was performed as a negative control, to check for compounds able to cause an increase in 400 nm absorbance in the absence of CocE. […] Some were able to do this in the absence of CocE. These were discarded as false positives.
FIG. 9 is a plot of the initial rate of 4-nitrophenyl acetate cleavage for all compounds, after the background “no enzyme” cleavage was subtracted. […]

[4] = Michaelis-Menten kinetics of cocaine hydrolysis (absorbance at 240 nm); assay type: biochemical; conditions: cocaine
Procedure: as §2, §3
Determination of Catalytic Efficiency. To determine the catalytic activity a spectrophometric assay was performed. Samples of L169K/G173Q CocE were added to a 96-well UV permeable plate containing increasing cocaine concentrations (0.5, 2.5, 5, 12.5, 25, 50, 100, and 150 μM) to give a final concentration of 10 ng/ml CocE in a final volume of 200 μl. The change in absorbance at 240 nm was measured over 20 minutes, with readings every 10 seconds, by a SpectraMax Plus 384 UV plate reader (Molecular Devices, Sunnyvale, Calif.) using SOFTmax Pro software (Version 3.1.2). The change in absorbance was converted to the change in concentration and furthermore the rate of decay per mole enzyme is determined (Kcat). Kcat and Km of the enzyme are determined using Prism (GraphPad software, San Diego).

[5] = tested on: cocaine-induced lethality; experiment: In vivo potency of protection against cocaine-induced lethality; design: species or system NIH-Swiss mice; conditions: for protection against cocaine-induced lethality: i.v. pretreatment 1 min prior to i.p. cocaine
[6] = Procedure: as §1
as §2, with “Final cocaine concentrations were as follows: 125, 62.5, 31.25, 15.63, 7.81, 3.91, 1.95, and 0.977 μM. Vmax and Km values were calculated using Prism (GraphPad Software, San Diego).” left out
as §3

[7] = tested on: cocaine-induced lethality; experiment: In vivo duration of protection against cocaine-induced lethality; design: species or system NIH-Swiss mice; conditions: 1 mg i.v.; cocaine 180 mg/kg i.p.
Procedure: In vivo protection against cocaine lethality. Male NIH-Swiss mice (25-32 g) were obtained from Harlan Inc. (Indianapolis, Ind.) and were housed in groups of 6 mice per cage. All mice were allowed ad libitum access to food and water, and were maintained on a 12-h light-dark cycle with lights on at 06.30 AM in a room kept at a temperature of 21-22° C. Experiments were performed in accordance with the Guide for the Care and Use of Laboratory Animals as adopted and promulgated by the National Institutes of Health. The experimental protocols were approved by the University Committee on the Use and Care of Animals at the University of Michigan.
Cocaine-induced toxicity was characterized by the occurrence of lethality, as defined by the cessation of observed movement and respiration. Mice were placed individually in Plexiglas observation chambers (16×28×20 cm high) to be habituated for 15 min before drug administration. Following intra-peritoneal (i.p.) cocaine administration, the mouse was immediately placed individually in the same chamber for observation. The presence or absence of lethality was recorded for 60 min following cocaine administration. The mouse was placed in a small restraint chamber (Outer tube diameter: 30 mm; Inner tube diameter: 24 mm) that left the tail exposed. The tail was cleansed with an alcohol wipe and a 30G1/2 precision glide needle (Fisher Scientific, Pittsburgh, Pa.) was inserted into one of the side veins for infusion. The i.v. injection volume of CocE or CocE mutant was 0.2 mL per mouse. Sterile gauze and pressure were applied to the injection site to staunch the bleeding.
Lethality was monitored following injection at 1, 5, 10, or 30 min, or 1, 2, 3, 4, 5 hours after enzyme administration. Each treatment used 8 mice to assess the percent of lethality (i.e., protection) in mice pretreated with a single dose of an esterase at a single time point.
These values were used to compare the degree of rightward shifts of cocaine's dose-response curve in the absence or presence of the enzyme pretreatment. In the time course study, a time point for duration of protection (i.e., 50% of lethality) was estimated by using each time course curve crossing 50% occurrence of lethality.
Evaluation of in vivo half life. CocE is administered IV to the tail vein in a volume of 0.2 ml. Animals are challenged with 180 mg/kg cocaine delivered intraperitoneally at a given time after CocE administration.

[8] = Circular dichroism melting temperature of CocE proteins alone; assay type: physicochemical; conditions: for melting temperature: circular dichroism, enzyme alone
Procedure: Further characterization of the stability of wild type (WT) CocE and thermostable mutants was performed through circular dichroism, which detects small changes in protein conformation and structure. Analysis by repeated CD measurements at increasing temperatures allows analysis of the thermodynamics and melting temperature (TM) of the protein, so long as the melting is reversible (i.e. the protein resumes it's original conformation upon cooling). […] However CD is still of value in determining the temperature to unfolding.

Molecule: COc1ccc(OC)c(N(CC(=O)N2CCCCC2)S(=O)(=O)c2ccccc2)c1 [compound 6169221]
- inhibition of cocaine cleavage (CocE [1]): did not inhibit
- inhibition of 4-nitrophenyl acetate cleavage (CocE [2]): did not inhibit
- effectiveness in stabilization screen (CocE [3]): effective

B1: T172R: CocE mutant (protein, listed as Rhodococcus sp.)
chain: MVDGNYSVASNVMVPMRDGVRLAVDLYRPDADGPVPVLLVRNPYDKFDVFAWSTQSTNWLEFVRDGYAVVIQDTRGLFASEGEFVPHVDDEADAEDTLSWILEQAWCDGNVGMFGVSYLGVTQWQAAVSGVGGLKAIAPSMASADLYRAPWYGPGGALSVEALLGWSALIGRGLITSRSDARPEDAADFVQLAAILNDVAGAASVTPLAEQPLLGRLIPWVIDQVVDHPDNDESWQSISLFERLGGLATPALITAGWYDGFVGESLRTFVAVKDNADARLVVGPWSHSNLTGRNADRKFGIAATYPIQEATTMHKAFFDRHLRGETDALAGVPKVRLFVMGIDEWRDETDWPLPDTAYTPFYLGGSGAANTSTGGGTLSTSISGTESADTYLYDPADPVPSLGGTLLFHNGDNGPADQRPIHDRDDVLCYSTEVLTDPVEVTGTVSARLFVSSSAVDTDFTAKLVDVFPDGRAIALCDGIVRMRYRETLVNPTLIEAGEIYEVAIDMLATSNVFLPGHRIMVQVSSSNFPKYDRNSNTGGVIAREQLEEMCTAVNRIHRGPEHPSHIVLPIIKR
- Kcat(mol · s^−1 · mol^−1) [4]: 2502 mol · s^−1 · mol^−1
- protection against cocaine-induced lethality [5]: protected
- Stability @ 37 (t1/2) [6]: ~0.767 h
- half-life / τinact of activity at 37° C. [6]: 0.767 h
- t1/2 [6]: 0.78 h
- LT50, pretreatment time to 50% lethality [7]: ~1.8 h
- melting temperature higher than the WT [8]: 2-3 degrees
- melting temperature [8]: ~42 °C

B2: L169K: CocE mutant (protein, listed as Rhodococcus sp.)
chain: MVDGNYSVASNVMVPMRDGVRLAVDLYRPDADGPVPVLLVRNPYDKFDVFAWSTQSTNWLEFVRDGYAVVIQDTRGLFASEGEFVPHVDDEADAEDTLSWILEQAWCDGNVGMFGVSYLGVTQWQAAVSGVGGLKAIAPSMASADLYRAPWYGPGGALSVEALLGWSAKIGTGLITSRSDARPEDAADFVQLAAILNDVAGAASVTPLAEQPLLGRLIPWVIDQVVDHPDNDESWQSISLFERLGGLATPALITAGWYDGFVGESLRTFVAVKDNADARLVVGPWSHSNLTGRNADRKFGIAATYPIQEATTMHKAFFDRHLRGETDALAGVPKVRLFVMGIDEWRDETDWPLPDTAYTPFYLGGSGAANTSTGGGTLSTSISGTESADTYLYDPADPVPSLGGTLLFHNGDNGPADQRPIHDRDDVLCYSTEVLTDPVEVTGTVSARLFVSSSAVDTDFTAKLVDVFPDGRAIALCDGIVRMRYRETLVNPTLIEAGEIYEVAIDMLATSNVFLPGHRIMVQVSSSNFPKYDRNSNTGGVIAREQLEEMCTAVNRIHRGPEHPSHIVLPIIKR
- Kcat(mol · s^−1 · mol^−1) [4]: 3104 mol · s^−1 · mol^−1
- increase in Km [4]: ~5 fold
- rightward shift in the cocaine dose-response curve ([5]; enzyme 1 mg (30 mg/kg) i.v.): 6-7 fold
- protection against cocaine-induced lethality [5]: protected
- Stability @ 37 (t1/2) [6]: ~4.57 h
- half-life / τinact of activity at 37° C. [6]: 4.57 h
- t1/2 [6]: 4.57 h
- plateau of catalytic activity, percent of maximal ([6]; 37° C., after greater than 8 hr / t=10 hours): approximately 35%
- LT50, pretreatment time to 50% lethality [7]: ~3.3 h
- melting temperature [8]: ~65 °C
